Data from paper PMC3820850.

Tests used:
[1] = biological target: PfEBA175 FL (entire ectodomain of P. falciparum 3D7 EBA175), Cd4-tagged and enzymatically biotinylated (P. falciparum (3D7)); test: SPR; equilibrium; biotinylated PfEBA175 FL immobilised, serial dilutions of PfEBA175 FL or RII injected; responses at equilibrium as a fraction of calculated Rmax; 37 °C, HBS-EP
[2] = biological target: native glycophorin-A extracted from human erythrocytes, chemically biotinylated (human) (UniProt P02724); test: SPR; equilibrium; biotinylated GYPA immobilised on streptavidin chip, biotinylated Cd4 tag as reference; SEC-separated analyte injected at 20 μl/min; BIAcore T100, 37 °C, HBS-EP; steady-state 1:1 fit
[3] = biological target: PfEBA175 FL (entire ectodomain of P. falciparum 3D7 EBA175), Cd4-tagged and enzymatically biotinylated (P. falciparum (3D7)); test: SPR; homophilic; biotinylated PfEBA175 FL immobilised on streptavidin chip, soluble PfEBA175 FL as analyte; quantified from the dissociation phase; 37 °C, HBS-EP
[4] = biological target: native glycophorin-A extracted from human erythrocytes, chemically biotinylated (human) (UniProt P02724); test: SPR; kinetic; biotinylated GYPA immobilised on streptavidin chip; analyte injected at 100 μl/min; 37 °C, HBS-EP; nonlinear fit of association and dissociation phases

Question: “PfEBA175 RII (region II, tandem DBL domains F1 and F2), Cd4- and hexa-His-tagged, soluble (domain or fragment)” was tested. Which fold weaker binding affinity to PfEBA175 FL than that of PfEBA175 FL [1] did it give?
Answer: 70 fold

Question: What about the Kd [2] of the same substance?
Answer: 2.52 µM

Question: “PfEBA175 FL (entire ectodomain of P. falciparum 3D7 EBA175), Cd4- and hexa-His-tagged, soluble (domain or fragment)” was tested. Which Kd [2] did it give?
Answer: 0.26 µM

Question: What about the koff [3] of the same substance?
Answer: 0.04 s⁻¹

Question: What about the koff [4] of the same substance?
Answer: 0.0968 s⁻¹

Question: What about the kon [4] of the same substance?
Answer: 860000 M⁻¹ s⁻¹
